US20250326816A1 (KOREA UNIVERSITY RESEARCH AND BUSINESS FOUNDATION, published 2025)
Positions count from the first letter of the chain named. Numbers in names are those of the source.

T1: ATZ (H)-A184: ICOS-L A184 variant fused to the heavy chain of Atezolizumab with LALAPG mutation in the Fc … (Homo sapiens (Human), UniProt O75144 19-256)
T1 construct: Antibody-ligand fusion; ICOS-L at the C-terminal of the heavy chain; not shown: Atezolizumab heavy chain (VH plus IgG1 constant region with LALAPG), atezolizumab light chain, and any linker
T1 chain: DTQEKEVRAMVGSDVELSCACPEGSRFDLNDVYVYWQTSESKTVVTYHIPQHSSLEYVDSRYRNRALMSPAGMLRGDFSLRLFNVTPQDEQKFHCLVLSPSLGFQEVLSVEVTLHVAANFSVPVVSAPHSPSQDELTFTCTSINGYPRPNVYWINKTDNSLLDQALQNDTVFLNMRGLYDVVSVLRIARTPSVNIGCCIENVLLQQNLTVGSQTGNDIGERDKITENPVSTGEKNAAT

T2: ATZ (L)-Y8_H57N: ICOS-L Y8_H57N variant fused to the light chain of Atezolizumab with LALAPG mutation in the … (Homo sapiens (Human), UniProt O75144 19-256)
T2 construct: Antibody-ligand fusion; ICOS-L at the C-terminal of the light chain; not shown: Atezolizumab light chain (VL plus constant region), atezolizumab heavy chain with LALAPG, and any linker
T2 sequence: T1 chain with Q51P, H52N, Y57N, P100Q

T3: ICOS-L variant Y8 fused to antibody Fc domain (LALAPG) (human, UniProt O75144 19-256)
T3 construct: also called Y8-Fc; not shown: human IgG1 Fc with L234A/L235A/P329G C-terminal to ICOS-L
T3 chain: T1 chain with Q51P, H52N, Y57H, P100Q

T4: wild-type ICOS-L (Homo sapiens (Human), UniProt O75144 19-256)
T4 construct: also called wild-type Inducible Co-Stimulator-ligand
T4 sequence: T1 chain with H52N, Y57N, P100Q

B1: ICOS monomer protein (ICOS E21-H129) (receptor, human, UniProt Q9Y6W8 21-129, looked up)
chain: EINGSANYEMFIFHNGGVQILCKYPDIVQQFKMQLLKGGQILCDLTKTKGSGNTVSIKSLKFCHSQLSNNSVSFFLYNLDHSHANYYFCNLSIFDPPPFKVTLTGGYLH
notes: range 21-129; also called wild-type ICOS
B2: A184 (ligand)
single chain: T1 chain
notes: Soluble form without Fc; the Fc and atezolizumab fusions are m12, m15 and m18; also called control A184
B3: ICOS-L variant Y8_H57N (ligand)
chain: T1 chain with Q51P, H52N, Y57N, P100Q
notes: H57 of Y8 put back to N
B4: Dimeric human ICOS (ICOS-Fc) (Fc fusion, UniProt Q9Y6W8 21-140, looked up)
chain: EINGSANYEMFIFHNGGVQILCKYPDIVQQFKMQLLKGGQILCDLTKTKGSGNTVSIKSLKFCHSQLSNNSVSFFLYNLDHSHANYYFCNLSIFDPPPFKVTLTGGYLHIYESQLCCQLK
notes: range 21-140; Fc at the C-terminus of ICOS to induce dimerization; Labeled with Alexa488 when used as probe in the flow cytometry on yeast; also called ICOS-Fc dimer protein; ICOS dimer protein; not shown: GS linker of glycine and serine; Fc region (domain) of human IgG antibody
B5: ICOS-L variant Y8 (ligand)
chain: T1 chain with Q51P, H52N, Y57H, P100Q
B6: ICOS-L variant Y8_P51Q (ligand)
chain: T1 chain with H52N, Y57H, P100Q
notes: P51 of Y8 put back to Q; keeps N57H only

Legend:
[1] = target: T1, ATZ (H)-A184: ICOS-L A184 variant fused …; assay: sandwich ELISA, PD-L1-Fc coated at 40 nM, atezolizumab fusion captured at 200 nM, His-tagged ICOS monomer titrated, anti-His-HRP
Experimental: (§1) Specifically, 50 μl of 40 nM PD-L1-Fc in 0.05 M Na₂CO₃ (pH 9.6) was dispensed into a Flat Bottom Polystyrene High Bind 96-well microplate (Costar), immobilized at 4° C. for 16 hours, and then blocked with 100 μl of PBS (pH 7.4) containing 0.5% bovine serum albumin (BSA) (Gibco) for 2 hours at room temperature. […] After washing four times, 50 μl of an anti-His-HRP conjugate was added and reacted at room temperature for 1 hour, and then washed four times. Thereafter, 50 μl of a 1-Step Ultra TMB-ELISA substrate solution (Thermo Fisher Scientific, 34028) was added to develop color, and then added with 50 μl each of 2 M H₂SO₄ to terminate the reaction, and then analyzed using an Epoch microplate spectrophotometer (BioTek).

[2] = target: T2, ATZ (L)-Y8_H57N: ICOS-L Y8_H57N variant …; assay: as above
Experimental: as §1

[3] = target: T3, ICOS-L variant Y8 fused to antibody Fc …; assay: ELISA, ICOS-L-Fc coated at 4 ug/ml, His-tagged ICOS monomer titrated, anti-His-HRP
Experimental: (§2) After washing four times, 50 μl of an anti-His-HRP conjugate was added and reacted at room temperature for 1 hour, and then washed four times. Thereafter, 50 μl of a 1-Step Ultra TMB-ELISA substrate solution (Thermo Fisher Scientific, 34028) was added to develop color, and then added with 50 μl each of 2 M H₂SO₄ to terminate the reaction, and then analyzed using an Epoch microplate spectrophotometer (BioTek).

[4] = target: B4; assay: ELISA, ICOS-Fc coated at 4 ug/ml, ICOS-L variant titrated, anti-His-HRP (x axis printed as PD-L1 CO…ON (nM))
Experimental: as §2

[5] = target: B4; assay: bio-layer interferometry (Octet R8), ICOS-Fc captured on Protein A biosensor, ICOS-L variant in solution; the table prints no units
[6] = target: B4; assay: bio-layer interferometry (Octet R8); fold gain of KD over wild-type ICOS-L as printed in the table
[7] = target: B4; assay: ELISA, ICOS-Fc coated at 4 ug/ml, ICOS-L variant titrated, anti-His-HRP
Experimental: as §2

wild-type ICOS-L = target: T4, wild-type ICOS-L; assay: bio-layer interferometry (Octet R8), ICOS-Fc captured on Protein A biosensor, ICOS-L variant in solution; the table prints no units
ICOS-L variant Y8_H57N = target: B3; assay: as above
ICOS-L variant Y8_P51Q = target: B6; assay: as above

| EC50 (read off the curve) [4] | Kd [5] | INCREASED MULTIPLE [6] | EC50 (read off the curve) [7] | other results | Binder |
| --- | --- | --- | --- | --- | --- |
|  |  |  |  | EC50 (read off the curve) [1]: ~5 nM; EC50 (read off the curve) [2]: ~9 nM; EC50 (read off the curve) [3]: ~4 nM | B1 |
| ~20 nM | 23.1 nM | 4.89 |  |  | B2 |
|  |  | 23.8 | ~10 nM |  | B3 |
|  |  |  |  | Kd (wild-type ICOS-L): 113 nM; Kd (ICOS-L variant Y8_H57N): 4.75 nM; Kd (ICOS-L variant Y8_P51Q): 23.3 nM | B4 |
| ~6 nM | 1.19 nM | 95 | ~4 nM |  | B5 |
|  |  | 4.85 |  |  | B6 |
